Laboratory results reported in patent US8722856B2, “Anti-MUC1 antibody” (National University Corporation Hokkaido University, priority 2008, dated 2014).

Target: T1, cancer-associated structure and normal tissue-associated structure of MUC1 (Homo sapiens, UniProt P15941)
T1 construct: Synthesis of MUC1 Tn20-mer Glycopeptide; made in house; host or cells: chemical solid-phase synthesis, partly with enzymatic sugar extension
Assay: Sugar chain specificity, overall statements from competitive ELISA
Assay type: binding
Description: Such specificity can be expressed by a difference in cross reactivity. The cross reactivity is obtained by a calculation equation of (IC50 for cancer-associated structure 2,3ST/IC50 for sugar chain structure to be compared)×100(%). As used herein, inclusion of specificity refers to a difference of 2 fold or more.
Ten days after cell fusion, screening of a specific antibody-producing cell was performed. ELISA was used in screening is as follows. To each well of a 384-well microtiter plate (manufactured by Nunc) 35 μl of a Tris buffer (50 mM Tris-HCl, pH 7.5) containing 0.35 μg of an anti-mouse IgG antibody (manufactured by Shibayagi Co., Ltd.) was added to immobilize the antibody at 4° C. for 16 hours. After these wells were washed with 90 μl of a washing solution (physiological saline containing 0.01% Tween 20) once, 200 μl of BLOCK ACE (manufactured by Dainippon Sumitomo Pharma Co., Ltd.) was added, and this was allowed to stand at room temperature for 2 hours for blocking (an anti-mouse IgG antibody solid-phased plate). After each well was washed with 90 μl of a washing solution once, 10 μl of a hybridoma culture supernatant, 10 μl of a buffer A (50 mM Tris buffer containing 0.5% bovine serum albumin, 0.01% Tween 80, 0.05% Proclin 150, and 0.15 M. NaCl, pH 7.4), and 10 μl of a buffer A containing 0.01 ng of Biotin-2,3-ST(DT*R)-20 (Compound No. 16 of Table 1) and 2 ng of Streptavidin-HRP (manufactured by PIERCE) were added to perform a reaction at 4° C. for 16 hours. Then, after each well was washed with 90 μl of a washing solution three times, 25 μl of TMB+-Substrate-Chromogen (manufactured by DAKO) was added to develop a color at room temperature for 30 minutes, 25 μl of 0.05 M sulfuric acid was added to stop the reaction, and absorbance was measured at 450 nm. […] Using a mouse monoclonal antibody isotyping ELISA kit (manufactured by BD Bioscience), a subclass of the antibody was determined and, as a result, an isotype of 1B2 was IgG2a.
Fifteen (15) μl of a buffer A containing a MUC1 antibody was added to an anti-mouse IgG antibody solid-phased plate and the reaction was allowed to proceed at room temperature for 3 hours. […] Then, after each well was washed with 90 μl of a washing solution three times, 15 μl of TMB+-Substrate-Chromogen (manufactured by DAKO) was added to develop a color at room temperature for 30 minutes, 15 μl of 0.05 M sulfuric acid was added to stop the reaction, and absorbance at 450 nm was measured.

T1 sequence (P15941 136-155): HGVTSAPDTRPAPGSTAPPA

B1: 1B2: mouse monoclonal anti-MUC1 antibody, isotype IgG2a, clone from immunization with 2,3-ST(DT*R)-20 conjugated to BSA (antibody, V domains shown)
VH: MEWIWIFLFILSGTAGVQSQVQLQQSGAELARPGASVKLSCKASGYTFTNYGLSWVKQRTGQGLEWIGENHPGSGIIYHNEKFRGKATLTADKSSSTAYVQLSSLTSEDSAVYFCARSSGTRGFAYWGQGTLVTVSA
VL: MKLPVRLLVLMFWIPASSSDVLMTQTPLSLPVSLGDQASISCRSSQSIVHSNGNTYLEWYLQKPGQSPKLLIYKVSNRFSGVPDRFSGSGSGTDFTLKISRVEAEDLGVYYCFQGSHGPWTFGGGTKLEIKRA
modifications: Antibody 1B2 VH sequence; Antibody 1B2 VL sequence
IC50 for a cancer-associated structure: ≤ 100 nM
cross reactivity for the normal tissue-associated structure, letting 2,3ST to be 100%: ≤ 1%
specificity for a cancer-associated structure as compared with that for a normal tissue-associated structure: at least 100 fold
cross reactivity with a sugar chain structure highly expressed in normal cells (2,3ST6L(DT*R)-20, 2,3-ST6SL(DT*R)-20): low cross reactivity
affinity for a sugar chain structure highly expressed in cancer cells (T(DT*R)-20, 2,3-ST(DT*R)-20, Tn(DT*R)-20): high affinity
